Test results: the supplement of paper PMC10065799, “High-throughput profiling of sequence recognition by tyrosine kinases and SH2 domains using bacterial peptide display” (eLife, 2023)

Legend:
AncSZ = assay: phosphorylation enrichment, bacterial display (enrichment ratio); higher = better substrate or ligand; peptides without Tyr show the background
EPHB1 = EPHB1 (UniProt P54762); assay: as above
EPHB2 = EPHB2 (UniProt P29323); assay: as above
FGFR1 = FGFR1 (UniProt P11362); assay: as above
FGFR3 = FGFR3 (UniProt P22607); assay: as above
Chain of FGFR3 (P22607 whole entry, looked up): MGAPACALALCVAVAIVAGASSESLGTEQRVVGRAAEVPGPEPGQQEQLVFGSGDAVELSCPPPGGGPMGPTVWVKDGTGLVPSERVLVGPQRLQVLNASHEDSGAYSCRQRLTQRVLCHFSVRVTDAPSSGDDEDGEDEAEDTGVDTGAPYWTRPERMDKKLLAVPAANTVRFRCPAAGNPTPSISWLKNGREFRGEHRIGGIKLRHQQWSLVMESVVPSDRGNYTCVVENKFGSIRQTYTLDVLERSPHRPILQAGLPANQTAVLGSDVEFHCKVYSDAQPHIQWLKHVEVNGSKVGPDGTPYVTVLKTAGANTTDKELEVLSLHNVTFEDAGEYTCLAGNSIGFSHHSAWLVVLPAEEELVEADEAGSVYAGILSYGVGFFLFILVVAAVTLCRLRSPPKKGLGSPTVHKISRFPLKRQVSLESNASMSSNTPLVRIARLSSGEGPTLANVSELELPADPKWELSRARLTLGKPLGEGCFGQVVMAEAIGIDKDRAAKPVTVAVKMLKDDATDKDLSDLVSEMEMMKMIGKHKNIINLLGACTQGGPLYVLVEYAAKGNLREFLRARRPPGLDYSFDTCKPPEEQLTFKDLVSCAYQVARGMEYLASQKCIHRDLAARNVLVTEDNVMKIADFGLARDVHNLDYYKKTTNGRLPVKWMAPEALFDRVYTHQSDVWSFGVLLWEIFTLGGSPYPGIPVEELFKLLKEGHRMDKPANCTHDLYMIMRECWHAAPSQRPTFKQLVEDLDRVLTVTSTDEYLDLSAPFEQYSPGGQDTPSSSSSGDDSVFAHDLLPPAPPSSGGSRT

Fer (mouse) = assay: as above
Fes = Fes (UniProt P07332); assay: as above
Fyn = Fyn (UniProt P06241); assay: as above
Chain of Fyn (P06241 whole entry, looked up): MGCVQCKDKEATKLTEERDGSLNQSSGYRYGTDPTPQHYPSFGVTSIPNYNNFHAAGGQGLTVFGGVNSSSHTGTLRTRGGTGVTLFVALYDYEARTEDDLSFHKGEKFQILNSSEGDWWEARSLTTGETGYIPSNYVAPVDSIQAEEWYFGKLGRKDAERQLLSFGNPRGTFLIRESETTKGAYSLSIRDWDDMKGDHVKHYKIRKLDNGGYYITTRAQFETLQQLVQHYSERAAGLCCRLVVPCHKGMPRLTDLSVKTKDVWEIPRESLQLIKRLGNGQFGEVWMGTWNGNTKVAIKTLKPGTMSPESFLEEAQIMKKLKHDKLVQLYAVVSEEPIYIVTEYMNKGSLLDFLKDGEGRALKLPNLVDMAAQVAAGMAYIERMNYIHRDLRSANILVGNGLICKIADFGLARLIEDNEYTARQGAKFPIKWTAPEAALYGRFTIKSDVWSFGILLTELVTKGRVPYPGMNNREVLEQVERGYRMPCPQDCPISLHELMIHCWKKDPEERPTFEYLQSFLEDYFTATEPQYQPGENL

Hck = Hck (UniProt P08631); assay: as above
Chain of Hck (P08631 whole entry, looked up): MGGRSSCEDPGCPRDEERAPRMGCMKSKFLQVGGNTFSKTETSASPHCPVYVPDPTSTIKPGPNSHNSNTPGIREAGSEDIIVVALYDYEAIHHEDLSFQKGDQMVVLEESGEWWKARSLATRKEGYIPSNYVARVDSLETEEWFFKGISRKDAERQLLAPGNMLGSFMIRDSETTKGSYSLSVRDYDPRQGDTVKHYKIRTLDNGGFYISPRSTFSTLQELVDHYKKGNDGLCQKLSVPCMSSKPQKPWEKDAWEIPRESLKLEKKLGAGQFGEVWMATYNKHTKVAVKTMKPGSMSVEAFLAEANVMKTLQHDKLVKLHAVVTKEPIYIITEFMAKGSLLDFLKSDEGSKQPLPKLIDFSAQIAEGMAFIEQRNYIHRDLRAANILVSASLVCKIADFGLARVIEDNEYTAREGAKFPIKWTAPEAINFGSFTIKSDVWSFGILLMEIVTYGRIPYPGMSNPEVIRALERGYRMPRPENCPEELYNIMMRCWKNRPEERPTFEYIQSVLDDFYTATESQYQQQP

Jak2 = Jak2 (UniProt O60674); assay: as above
Chain of Jak2 (O60674 whole entry, looked up): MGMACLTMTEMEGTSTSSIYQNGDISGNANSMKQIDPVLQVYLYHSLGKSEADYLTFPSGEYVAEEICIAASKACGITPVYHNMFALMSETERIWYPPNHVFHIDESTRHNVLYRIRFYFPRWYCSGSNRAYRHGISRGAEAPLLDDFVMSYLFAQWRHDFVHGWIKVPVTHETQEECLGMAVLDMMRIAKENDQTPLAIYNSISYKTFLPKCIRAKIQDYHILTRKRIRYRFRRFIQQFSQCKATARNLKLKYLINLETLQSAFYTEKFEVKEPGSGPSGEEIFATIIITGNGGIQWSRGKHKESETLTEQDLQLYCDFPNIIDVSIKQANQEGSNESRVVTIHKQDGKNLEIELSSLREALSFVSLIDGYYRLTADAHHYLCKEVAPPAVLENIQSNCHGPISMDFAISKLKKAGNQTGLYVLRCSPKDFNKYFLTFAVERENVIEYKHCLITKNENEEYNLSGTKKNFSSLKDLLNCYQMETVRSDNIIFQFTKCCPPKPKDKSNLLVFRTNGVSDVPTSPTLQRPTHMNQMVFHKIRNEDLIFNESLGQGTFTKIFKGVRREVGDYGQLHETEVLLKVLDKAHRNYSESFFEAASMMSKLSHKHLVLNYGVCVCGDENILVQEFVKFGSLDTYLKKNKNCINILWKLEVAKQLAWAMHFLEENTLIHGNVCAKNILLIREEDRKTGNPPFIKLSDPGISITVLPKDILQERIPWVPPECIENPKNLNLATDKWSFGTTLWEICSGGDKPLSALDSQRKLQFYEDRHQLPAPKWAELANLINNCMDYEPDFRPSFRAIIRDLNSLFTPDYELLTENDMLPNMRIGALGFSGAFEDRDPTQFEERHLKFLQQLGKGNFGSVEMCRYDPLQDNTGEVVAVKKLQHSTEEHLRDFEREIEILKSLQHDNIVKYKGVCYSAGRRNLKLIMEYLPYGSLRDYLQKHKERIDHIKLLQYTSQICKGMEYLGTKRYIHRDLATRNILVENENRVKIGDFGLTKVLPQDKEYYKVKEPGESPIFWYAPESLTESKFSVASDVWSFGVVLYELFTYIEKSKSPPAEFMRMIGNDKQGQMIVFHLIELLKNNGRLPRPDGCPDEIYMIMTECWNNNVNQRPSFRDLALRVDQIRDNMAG

MERTK = MERTK (UniProt Q12866); assay: as above
c-Abl (mouse) = assay: as above
c-Src = assay: as above
Grb2 SH2 = Grb2 SH2 (UniProt P62993); assay: SH2 binding enrichment of the phosphorylated peptide, bacterial display (enrichment ratio); higher = better substrate or ligand; peptides without Tyr show the background
SHP2-C SH2 = assay: as above
c-Src SH2 = assay: as above
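Throughout, for SH2 binding enrichment of the phosphorylated peptide, bacterial display: peptide library displayed on the E. coli surface as eCPX fusions, selected cells deep-sequenced, score is each peptide's frequency after selection divided by its frequency in the input.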
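Throughout, for phosphorylation enrichment, bacterial display: 11-residue human phosphosite peptides and single-mutation variants displayed on the E. coli surface, counted by deep sequencing, each peptide's frequency after selection divided by its frequency in the unselected input library; frequency after pTyr selection over input frequency; kinase dosed for 20-30% of maximal phosphorylation in three min.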

Chain of EPHB1 (P54762 whole entry, looked up): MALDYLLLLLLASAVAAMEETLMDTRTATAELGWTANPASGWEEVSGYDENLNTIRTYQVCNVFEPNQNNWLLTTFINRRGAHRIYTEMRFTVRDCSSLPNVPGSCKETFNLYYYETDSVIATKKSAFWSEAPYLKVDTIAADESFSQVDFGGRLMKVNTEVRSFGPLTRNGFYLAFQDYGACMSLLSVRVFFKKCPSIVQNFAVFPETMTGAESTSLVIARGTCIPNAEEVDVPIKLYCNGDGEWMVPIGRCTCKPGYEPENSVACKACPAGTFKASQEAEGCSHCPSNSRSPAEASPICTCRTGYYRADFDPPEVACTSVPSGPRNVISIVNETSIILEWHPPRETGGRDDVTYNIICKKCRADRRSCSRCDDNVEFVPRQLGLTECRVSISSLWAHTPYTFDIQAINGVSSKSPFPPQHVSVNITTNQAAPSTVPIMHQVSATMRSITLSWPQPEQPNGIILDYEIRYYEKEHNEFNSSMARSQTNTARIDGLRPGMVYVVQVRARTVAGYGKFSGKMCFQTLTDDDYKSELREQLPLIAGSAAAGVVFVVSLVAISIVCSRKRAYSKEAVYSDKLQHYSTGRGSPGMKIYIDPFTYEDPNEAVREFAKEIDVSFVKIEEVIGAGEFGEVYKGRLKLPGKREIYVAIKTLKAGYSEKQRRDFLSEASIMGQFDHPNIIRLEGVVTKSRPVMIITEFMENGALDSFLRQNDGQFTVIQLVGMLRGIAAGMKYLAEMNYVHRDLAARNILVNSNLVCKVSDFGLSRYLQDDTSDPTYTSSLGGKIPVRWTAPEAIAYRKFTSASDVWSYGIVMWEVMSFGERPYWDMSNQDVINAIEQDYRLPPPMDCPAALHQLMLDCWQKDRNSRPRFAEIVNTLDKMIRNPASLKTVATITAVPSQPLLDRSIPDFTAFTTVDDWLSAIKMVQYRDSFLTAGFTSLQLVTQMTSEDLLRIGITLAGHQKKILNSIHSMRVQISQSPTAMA
Chain of EPHB2 (P29323 whole entry, looked up): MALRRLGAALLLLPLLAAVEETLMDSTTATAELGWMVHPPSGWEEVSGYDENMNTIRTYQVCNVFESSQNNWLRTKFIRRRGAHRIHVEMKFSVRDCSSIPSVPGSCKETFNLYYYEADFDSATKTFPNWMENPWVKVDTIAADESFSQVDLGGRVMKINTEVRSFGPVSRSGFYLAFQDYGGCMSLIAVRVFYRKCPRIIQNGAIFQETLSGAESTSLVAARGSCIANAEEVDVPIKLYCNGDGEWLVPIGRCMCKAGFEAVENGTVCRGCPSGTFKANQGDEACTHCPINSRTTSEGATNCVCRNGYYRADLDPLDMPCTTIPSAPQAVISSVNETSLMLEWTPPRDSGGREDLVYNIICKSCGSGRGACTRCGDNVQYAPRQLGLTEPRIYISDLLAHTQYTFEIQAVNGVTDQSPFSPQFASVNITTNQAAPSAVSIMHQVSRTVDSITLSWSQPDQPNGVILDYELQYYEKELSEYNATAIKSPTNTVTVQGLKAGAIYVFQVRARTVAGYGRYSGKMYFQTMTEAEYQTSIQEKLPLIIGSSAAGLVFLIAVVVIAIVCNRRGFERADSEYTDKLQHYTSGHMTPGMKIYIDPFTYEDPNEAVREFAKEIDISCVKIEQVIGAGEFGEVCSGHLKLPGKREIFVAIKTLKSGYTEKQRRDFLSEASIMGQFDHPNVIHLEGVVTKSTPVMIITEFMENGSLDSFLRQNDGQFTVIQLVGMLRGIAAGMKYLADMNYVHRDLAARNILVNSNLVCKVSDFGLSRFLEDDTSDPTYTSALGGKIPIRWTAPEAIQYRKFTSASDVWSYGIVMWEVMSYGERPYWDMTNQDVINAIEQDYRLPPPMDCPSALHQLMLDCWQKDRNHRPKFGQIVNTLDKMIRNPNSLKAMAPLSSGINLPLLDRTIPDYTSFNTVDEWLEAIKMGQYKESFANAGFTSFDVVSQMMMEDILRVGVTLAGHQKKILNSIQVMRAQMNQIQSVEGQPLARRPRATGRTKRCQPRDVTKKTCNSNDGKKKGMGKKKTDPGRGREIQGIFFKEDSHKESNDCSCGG

| Sequence | SH2 binding enrichment (Grb2 SH2) | SH2 binding enrichment (SHP2-C SH2) | SH2 binding enrichment (c-Src SH2) | phosphorylation enrichment (AncSZ) | phosphorylation enrichment (EPHB1) | phosphorylation enrichment (EPHB2) | phosphorylation enrichment (FGFR1) | phosphorylation enrichment (FGFR3) | phosphorylation enrichment (Fer (mouse)) | phosphorylation enrichment (Fes) | phosphorylation enrichment (Fyn) | phosphorylation enrichment (Hck) | phosphorylation enrichment (Jak2) | phosphorylation enrichment (MERTK) | phosphorylation enrichment (c-Abl (mouse)) | phosphorylation enrichment (c-Src) |
| --- | --- | --- | --- | --- | --- | --- | --- | --- | --- | --- | --- | --- | --- | --- | --- | --- |
| SAVTGYRVDVI [FN1_Y937] | 0.84 | 0.514 | 0.452 | 0.546 | 0.368 | 0.377 | 0.398 | 0.534 | 0.335 | 0.566 | 0.425 | 0.374 | 0.616 | 0.358 | 0.432 | 0.353 |
| RRNEEYCLLDS [ITK_Y198] | 0.75 | 0.54 | 0.836 | 2.25 | 1 | 1.06 | 1.15 | 1.12 | 0.967 | 1.64 | 1.7 | 1.1 | 1.57 | 1.26 | 0.821 | 0.805 |
| SLVGCYNLTFM [HS6ST3_Y323] | 0.599 | 0.553 | 0.432 | 1.42 | 0.694 | 0.868 | 0.589 | 0.95 | 1.29 | 1.56 | 0.694 | 0.745 | 1.39 | 0.498 | 1.12 | 0.794 |
| HICTAYKLVLA [DHCR24_Y190_E191K] | 0.867 | 0.56 | 0.45 | 1.88 | 1.49 | 1.53 | 2.66 | 2.2 | 1.52 | 2.86 | 1.3 | 1.47 | 1.88 | 0.832 | 0.969 | 1.34 |
| TGGLEYIVPLM [CLCN4_Y548] | 0.869 | 0.675 | 0.52 | 2.14 | 0.797 | 0.787 | 3 | 2.29 | 0.379 | 0.965 | 0.436 | 0.42 | 2.32 | 0.364 | 0.937 | 0.417 |
| VPFARYLAMNK [HARS1_Y138] | 0.739 | 0.561 | 0.576 | 0.432 | 0.379 | 0.43 | 0.388 | 0.442 | 0.334 | 0.516 | 0.382 | 0.381 | 0.361 | 0.376 | 0.328 | 0.362 |
| EEGNPYYSSTR [MCCC2_Y520_A524T] | 0.82 | 1.15 | 1.22 | 1.1 | 0.595 | 0.531 | 0.672 | 0.74 | 0.722 | 1.1 | 0.921 | 1.25 | 0.693 | 0.428 | 0.67 | 1.44 |
| RNDQVYQPLRD [CD3D_Y149] | 0.787 | 0.491 | 0.663 | 0.875 | 1.26 | 1.18 | 1.17 | 0.927 | 0.575 | 0.7 | 5.01 | 10.9 | 0.673 | 1.26 | 0.728 | 4.45 |
| RAMRRYLEWGE [ERBB3_Y680_R683W] | 0.632 | 0.571 | 0.437 | 0.514 | 0.403 | 0.398 | 0.427 | 0.314 | 0.834 | 0.561 | 0.553 | 0.657 | 0.677 | 0.466 | 0.4 | 0.834 |
| ARGMEYLASKK [FGFR1_Y613] | 0.529 | 0.513 | 0.456 | 0.61 | 0.356 | 0.367 | 0.285 | 0.409 | 0.324 | 0.566 | 0.364 | 0.367 | 0.662 | 0.354 | 0.506 | 0.403 |
| WVFNHYRWIIW [BRCA2_Y2624_YF] | 1.09 | 0.776 | 0.717 | 1.29 | 0.611 | 0.536 | 0.452 | 0.824 | 0.456 | 1.39 | 0.343 | 0.403 | 1.36 | 0.437 | 0.862 | 0.432 |
| VRFMAYTDETC [F8_Y450_F455C] | 0.83 | 1.03 | 0.627 | 1.11 | 0.649 | 0.59 | 0.544 | 0.773 | 0.522 | 1.3 | 0.403 | 0.662 | 1.05 | 0.431 | 0.973 | 0.413 |
| HTLQLYRCREE [ALPK3_Y342] | 0.672 | 0.658 | 0.406 | 0.953 | 0.499 | 0.588 | 0.898 | 0.7 | 0.575 | 1.03 | 0.573 | 0.522 | 0.574 | 0.607 | 0.329 | 0.603 |
| TSNQEYLYLSM [FGFR1_Y766_D768Y] | 0.812 | 0.553 | 0.447 | 2.64 | 2.28 | 1.83 | 12.5 | 8.18 | 0.845 | 1.31 | 2.08 | 2.67 | 3.5 | 5.28 | 0.975 | 2.88 |
| NARGLYFKLHN [GATA2_Y376_C373R_YF] | 0.988 | 0.88 | 0.624 | 1.51 | 0.622 | 0.634 | 0.554 | 0.87 | 0.657 | 1.34 | 0.487 | 0.53 | 1.67 | 0.476 | 0.896 | 0.542 |
| KQNSLYSFSDH [CCDC82_Y331] | 0.765 | 0.609 | 0.466 | 1 | 0.853 | 0.651 | 0.489 | 0.536 | 3.95 | 0.907 | 5.24 | 3.25 | 0.853 | 9.08 | 0.691 | 3.97 |
| SKKVRYVVSKA [BARD1_Y156] | 1.38 | 1.17 | 1.32 | 0.474 | 0.309 | 0.334 | 0.292 | 0.402 | 0.36 | 0.569 | 0.366 | 0.372 | 0.482 | 0.312 | 0.538 | 0.341 |
| CASQLCPRHKH [DCTN4_Y263_Y263C] | 1.19 | 1.2 | 1.43 | 0.477 | 0.305 | 0.393 | 0.33 | 0.332 | 0.367 | 0.533 | 0.366 | 0.326 | 0.495 | 0.358 | 0.451 | 0.312 |
| DAVKHYMQFRK [CNGA2_Y395] | 0.847 | 0.722 | 0.461 | 0.46 | 0.359 | 0.363 | 0.344 | 0.427 | 0.366 | 0.558 | 0.591 | 0.555 | 0.44 | 0.397 | 0.54 | 0.441 |
| RMDGTYACSFT [FLNB_Y704_YF] | 0.893 | 0.619 | 0.557 | 1.3 | 1.03 | 0.741 | 0.836 | 0.812 | 0.932 | 1.16 | 2.61 | 2.43 | 0.806 | 0.702 | 1.34 | 2.31 |
| AKAEICEMRPL [COX10_Y97_Y97C] | 1.01 | 0.798 | 0.679 | 0.709 | 0.469 | 0.516 | 0.593 | 0.477 | 0.602 | 0.921 | 0.389 | 0.608 | 0.716 | 0.437 | 0.738 | 0.533 |

Now from value to sequence, other results behind:

| SH2 binding enrichment (Grb2 SH2) | SH2 binding enrichment (SHP2-C SH2) | SH2 binding enrichment (c-Src SH2) | Sequence | phosphorylation enrichment (AncSZ) | phosphorylation enrichment (EPHB1) | phosphorylation enrichment (EPHB2) | phosphorylation enrichment (FGFR1) | phosphorylation enrichment (FGFR3) | phosphorylation enrichment (Fer (mouse)) | phosphorylation enrichment (Fes) | phosphorylation enrichment (Fyn) | phosphorylation enrichment (Hck) | phosphorylation enrichment (Jak2) | phosphorylation enrichment (MERTK) | phosphorylation enrichment (c-Abl (mouse)) | phosphorylation enrichment (c-Src) |
| --- | --- | --- | --- | --- | --- | --- | --- | --- | --- | --- | --- | --- | --- | --- | --- | --- |
| 0.856 | 0.52 | 0.802 | HRDSSYFWEIE [RAF1_Y340_Q335H_YF] | 1.34 | 0.59 | 0.629 | 1.02 | 0.984 | 0.497 | 1.8 | 0.579 | 0.638 | 2.02 | 0.628 | 1.13 | 0.888 |
| 0.741 | 11.5 | 0.649 | GLTSTYVGIRK [ROBO1_Y932_A933V] | 0.756 | 0.471 | 0.506 | 0.46 | 0.489 | 0.374 | 0.775 | 0.528 | 1.67 | 0.598 | 0.463 | 0.565 | 0.562 |
| 0.669 | 0.483 | 0.4 | SFCFRYRCAAR [SUMF1_Y344_YF] | 0.772 | 0.466 | 0.571 | 0.47 | 0.54 | 0.472 | 0.634 | 0.49 | 0.469 | 0.643 | 0.614 | 0.763 | 0.618 |
| 1.88 | 4.43 | 2.62 | CTTIHYSFMCN [TP53_Y234_N235S_YF] | 1.08 | 0.568 | 0.572 | 0.636 | 0.666 | 0.942 | 1 | 0.563 | 0.559 | 0.734 | 0.843 | 0.828 | 0.544 |
| 0.96 | 0.788 | 0.772 | CTTIHYNFMGN [TP53_Y234_C238G_YF] | 0.926 | 0.565 | 0.487 | 0.542 | 0.523 | 0.472 | 0.876 | 0.464 | 0.478 | 0.73 | 0.532 | 0.699 | 0.402 |
| 0.876 | 0.667 | 0.497 | VSAPEYGPKLK [TBC1D14_Y46_L41V] | 0.644 | 0.452 | 0.391 | 0.476 | 0.504 | 0.452 | 0.678 | 0.437 | 0.465 | 0.556 | 0.394 | 0.469 | 0.369 |
| 0.754 | 0.554 | 0.597 | DPNQQYFIAMD [TBX15_Y159_H156N_YF] | 1.07 | 0.466 | 0.443 | 0.892 | 0.866 | 0.403 | 0.934 | 0.444 | 0.493 | 0.911 | 0.356 | 0.672 | 0.482 |
| 0.799 | 0.906 | 0.452 | IITDFYVDMKF [MPP4_Y567_V562I_YF] | 1.31 | 1.41 | 1.08 | 1.37 | 1.39 | 0.953 | 1.66 | 0.527 | 0.722 | 1.75 | 0.511 | 0.905 | 0.58 |
| 0.825 | 0.827 | 0.572 | DFPMGYPSYLA [TBCK_Y153_I151M] | 0.65 | 0.399 | 0.453 | 0.412 | 0.473 | 0.362 | 0.751 | 0.443 | 0.367 | 0.663 | 0.464 | 0.507 | 0.416 |
| 0.655 | 1.92 | 4.5 | NLAAQYTTVGR [SGSH_Y240_D235N] | 0.444 | 0.304 | 0.312 | 0.376 | 0.375 | 0.36 | 0.489 | 0.401 | 0.568 | 0.414 | 0.438 | 0.416 | 0.494 |
| 0.694 | 0.772 | 0.415 | VGGRIYIDDAL [PKLR_Y218_G222A] | 0.86 | 0.51 | 0.497 | 0.542 | 0.612 | 0.547 | 1.06 | 0.462 | 0.486 | 0.767 | 0.402 | 0.737 | 0.419 |
| 0.787 | 0.789 | 0.477 | SSPRRYTIAAL [TTR_Y125_G121S] | 0.437 | 0.303 | 0.374 | 0.383 | 0.402 | 0.382 | 0.567 | 0.412 | 0.378 | 0.356 | 0.34 | 0.4 | 0.312 |
